Data: the nanobody polyreactivity screen of Harvey et al. (2022)

Experiment: yeast display, Sf9 membrane polyspecificity reagent, FACS + sequencing; frameworks hold sequencing errors
How it was run: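 Nanobodies came from a synthetic yeast display library in Saccharomyces cerevisiae BJ5465, induced with galactose for 36–48 hours and stained for 1 hour at 4 °C with 10% biotinylated, detergent-solubilized Sf9 membrane reagent. Cells were enriched on streptavidin microbeads and then FACS-sorted, with low and high (top ~1%) gates set on anti-HA fluorescence for expression and streptavidin fluorescence for reagent binding. Each polyreactivity label reflects the gate a clone came from. Genes were amplified by colony PCR, sequenced by MiSeq 2 × 250 and filtered by CDR length.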
For “QVQLVESGGGLVQAGGSLRLSCAASGSIVPYNVMGWYRQAPGKERELVAAITRRGGSTYYADSVKGRFTISRDNAKNTVYLQMNSLKPEDSAVYYCAAVPYPRGKGYDYWGQGTQVTVSS”, the “polyreactivity (PSR sort gate)” value was “high polyreactivity”.
In the case of “QVQLVESGGGLVQAGGSLRLSCAASGSIVRYSVGWYRQAPGKERELVAAISIGGTTYYADSVKGRFTISRDNAKNTVYLPMNSLKPEDTAVYYCNVRRRTWHYITSMDYWGQGTQVNVSS”, the “polyreactivity (PSR sort gate)” value is reported as “high polyreactivity”.
With “QVQLVESGGGLVQAGGSLRLSCAASGSIVSTYAMGWYSQAPGKERELVAAITSTGSMNYADSVKGRFTISRDNAKNTVYLQMNSLKPEDTAVYYCAARYAGPSPTDTGHDYWGQGTQVTVSS” the “polyreactivity (PSR sort gate)” value was “low polyreactivity”.
With “QVQLVESGGGLVQAGGSLRLSCAASGSIVTSNAMGWYRQAPGKERELVAAITSSSSTNYADSVKGRFTISRDNAKNTVYLQMNSLKPEDTAVYYCAADYTWYYPYWIMDYWGQGTQVTVSS” the “polyreactivity (PSR sort gate)” value was “low polyreactivity”.
With “QVQLVESGGGLVQAGGSLRLSCAASGSIVYANTMGRYRQAPGKERELVAAIRSVGRTYYADSVKGRFTISRDNAKNTVYLQMNSLKPADTAVYYCAADPRSYFTSEYWGQGTQVTVSS” the “polyreactivity (PSR sort gate)” value was “low polyreactivity”.
With “QVQLVESGGGLVQAGGSLRLSCAASGSIYDSYAMGWYRQAPGKERELVATINTSGGSTYYADSVKGRFTIHDNAKNTVYLQMNSLKPEDTAVYYCNAGRWVYWQNNFGDYGYWGQGTQVTVSS” the “polyreactivity (PSR sort gate)” value was “low polyreactivity”.
With “QVQLVESGGGLVQAGGSLRLSCAASGSIYGDYVMGWYRQAPGKERELVAAINRGGYTYYADSVKGRFTISRDNAKNTVYLQMNSLKPEDTAVYYCAAGYPSWYYGYPYDSWGQGTQVTVSS” the “polyreactivity (PSR sort gate)” value was “low polyreactivity”.
With “QVQLVESGGGLVQAGGSLRLSCAASGSIYGLNAMGWYRQAPGKESELVAAITWSGGSSTYYADSVKGRFTISRDNAKNTVYLQMNSLKPVDTAVYYCAAGRVFIPYYFRFYYWGQGTQVSVSS” the “polyreactivity (PSR sort gate)” value was “high polyreactivity”.
For “QVQLVESGGGLVQAGGSLRLSCAASGSIYGPYAMGLYRQAPGKERELVAGITRSVGSTYYADSVKGRFTISRDYAKNTVYLQMNSLKPEDTAVYYCNAKWMYSRWAGYDYWGQGTQVTVSS”, the “polyreactivity (PSR sort gate)” value was “low polyreactivity”.
With “QVQLVESGGGLVQAGGSLRLSCAASGSIYGVKAMRWYRQAPGKERELVADITKSTGDTYADSVKGRFTISRDNAKNTVYLQMNSLKPEDTAGYYCNARVTVKQKRLYLYDFWGQGTQVTVSS” the “polyreactivity (PSR sort gate)” value was “low polyreactivity”.
With “QVQLVESGGGLVQAGGSLRLSCAASGSIYPNGLGWYRQAPGKERELVATITSGGSTYYADSVKGRFTISRDNAKNTVYLPMHSQKPEDTAVYYCAATVYGGYSGSGSNYWGQGTQVTVSS” the “polyreactivity (PSR sort gate)” value was “low polyreactivity”.
For “QVQLVESGGGLVQAGGSLRLSCAASGSIYRQYAMGWSRPAPGKERELVAASRRGTSTYYADSVKGRFTLSRDNAKNTVYLHMNSLKPDDSAVYYCAADTSWYSWWFDYWGQGTQVTVSS”, the “polyreactivity (PSR sort gate)” value was “low polyreactivity”.
For “QVQLVESGGGLVQAGGSLRLSCAASGSIYRYYAMGWYRQAPGKETELVAAIRVSTGSTSYADSVKGRFTISRDNAKNTVYLQMNSLKPEDTAFYYCNAGVGYFVGTYYGFLPYDYWGQGTQVTVSS”, the “polyreactivity (PSR sort gate)” value was “high polyreactivity”.
For “QVQLVESGGGLVQAGGSLRLSCAASGSIYYNAMGWYRQAPGKERELVAAISTSGGTTYYADSVKGRFTISRDNAKNTVYLQMISQKPEDTAVYYCNARPSRRGAFDYWGQGTQVTVSS”, the “polyreactivity (PSR sort gate)” value was “high polyreactivity”.
With “QVQLVESGGGLVQAGGSLRLSCAASGSIYYRNAMGSYRQAPGKERELVAAISSTGSTYYADSVKGRFTISRDNAKNTVYLQMNSMKPEDTAVYYCAARQGYRSYRRYDSWGQGTQVTVSS” the “polyreactivity (PSR sort gate)” value was “high polyreactivity”.
With “QVQLVESGGGLVQAGGSLRLSCAASGSIYYTYAMGWYRPAPGKERELVAAISKRGGSTYYADSVKGRFTISRDNAKNSVYLQMNSLKPEDTAVYYCAARYNAPRGGGSDDYWGQGTQVTVSS” the “polyreactivity (PSR sort gate)” value was “high polyreactivity”.
With “QVQLVESGGGLVQAGGSLRLSCAASGSIYYYTMGWYRQAPGKERELVAAISRSGTRTYYADSVKGRFTISRDNAMYTVYLQMNSLKPEDTAGYYCAARILPPGDNVDDDYWGQGTQVTVSS” the “polyreactivity (PSR sort gate)” value was “high polyreactivity”.
In the case of “QVQLVESGGGLVQAGGSLRLSCAASGSLFFLYAMGWYRQAPGKDRELVAAISRTGSTYADSVKGRFTISRDNAKTTVYLQMNSVKPEDTAVYYCAAEYRYYWYGTMNYWGQCTQVTVSS”, the “polyreactivity (PSR sort gate)” value is reported as “low polyreactivity”.
For “QVQLVESGGGLVQAGGSLRLSCAASGSLLADNAMGWSRQAPGKERELVAAISRRGGRTYYADSVKGRFTISRDNAKNTVYLQMNSLKPEDTAVYYCAAVGSFHIVDYWGQGTQVTVSS”, the “polyreactivity (PSR sort gate)” value was “high polyreactivity”.
In the case of “QVQLVESGGGLVQAGGSLRLSCAASGSNFAKNAMGWYRQAPGKEREMVAAITYSGGSTYYADSVKGRFTISRDNAKNTVYVQMNSLKPEDTAVYYCAADVWWSYYRYDYWGQGTQVTVSS”, the “polyreactivity (PSR sort gate)” value is reported as “low polyreactivity”.
With “QVQLVESGGGLVQAGGSLRLSCAASGSNFANYAMGWYRQAPGKEREFVAGISGSGGSTFYADSVKGRFTISRDNAKNTVYLQMNSLKPEDTAVYYCAVVQRSKRTYPWYDYWGQGTQVTVSS” the “polyreactivity (PSR sort gate)” value was “low polyreactivity”.
In the case of “QVQLVESGGGLVQAGGSLRLSCAASGSNFDLNAMGLYRQAPGKERELVAAISSGGGTYYADSVKGRFTIARDNAKNTVYLQMNSLKPEDTAVYYCNRVTRWTYNYWGQGTQVTVSS”, the “polyreactivity (PSR sort gate)” value is reported as “high polyreactivity”.
With “QVQLVESGGGLVQAGGSLRLSCAASGSNFFSNAMGWYRQAPGKERELVAAITSSGASTYYADSVKGRFTISRDNAKNTVYLQMNSLKPEDTAVYYCAVVGGGKRYGYWGQGTQVTVSS” the “polyreactivity (PSR sort gate)” value was “high polyreactivity”.
With “QVQLVESGGGLVQAGGSLRLSCAASGSNFGSYTMGWSRQAPGKERELVAAISLGGGSTYYADSVKGRFTISRDNAKNTVYLQMNSLKPEDTAVYYCAAGFTDPYDYWGQGTQVTVSS” the “polyreactivity (PSR sort gate)” value was “low polyreactivity”.
In the case of “QVQLVESGGGLVQAGGSLRLSCAASGSNFGYYPMGWYRQATGKERELVAAISWSDGSTYYADSVKGRFTISRDNAKNTVYLQMNSRKPEDTAVYYCAARFTPYITSDDGHYDYWGQGTQVTVSS”, the “polyreactivity (PSR sort gate)” value is reported as “low polyreactivity”.
With “QVQLVESGGGLVQAGGSLRLSCAASGSNFGYYTLGWYRQAPGKERELVAAIRYGDGSTNYADSVKGRFTISRDNAKNTVYLKMNSLKPEDTAVYYCATRSQRGYRGYNYWGQGTQVTLSS” the “polyreactivity (PSR sort gate)” value was “high polyreactivity”.
For “QVQLVESGGGLVQAGGSLRLSCAASGSNFIPNAMGWYRQAPGKERELVAAIRSGRSTYYADSVKGRITISRDNANNTVYLQMNSLQPEATAVYYCAADTYPYYYYLARYYYWGQCTQVTVSS”, the “polyreactivity (PSR sort gate)” value was “low polyreactivity”.
With “QVQLVESGGGLVQAGGSLRLSCAASGSNFKTYAMGLYRQAPGKERELVAAISSGGSTYYADSVKGRFTISRDNAKITVYLQMNSLKPEDTAVYYCAADPWGAFVSFASYYYWGQATQVTVSS” the “polyreactivity (PSR sort gate)” value was “low polyreactivity”.
With “QVQLVESGGGLVQAGGSLRLSCAASGSNFRDNGMGWYRQAPGKERELVAAINSGDSTYYADSVKGRFTISRDNAKNTVYLQMNSLKPEDTAVYYCNADDRRALSQRQYDWYDYWGQGTQVTVSS” the “polyreactivity (PSR sort gate)” value was “low polyreactivity”.
With “QVQLVESGGGLVQAGGSLRLSCAASGSNFRFYVMGWYRQAPGKERELVAAISIGGSTNYADSVKGRFTISRDNAKNSVYLQMNSLKPEDTAVYYCAADYWYGAGLPHGTEFDYWGQGTQVTVSS” the “polyreactivity (PSR sort gate)” value was “low polyreactivity”.
With “QVQLVESGGGLVQAGGSLRLSCAASGSNFRGYTMGWYRQAPGKERELVANISTSVGRTYYADSVKGRFTISRDNAKNTVFLQMNSLKPEDTAVYYCNARRAYRWKPDTGSAGMDYWGQGTQVTVSS” the “polyreactivity (PSR sort gate)” value was “high polyreactivity”.
